From publication PMC12644819 (Nature Communications, 2025)
Ends that are not written are not given here.

T1: LptD (E. coli, UniProt P31554 25-784, disulfide bonds Cys31-Cys724 and Cys173-Cys725)
T1 construct: LptD, E. coli outer membrane LPS transporter, β-taco domain plus 26-stranded β-barrel; called full-length LptD in contrast to the β-barrel truncation; Untagged wild-type LptD; also called full-length LptD; endogenous LptD; source: E. coli BW25113, overproduced from pLptDEM^His or pLptDE^His, or endogenous; DDM-solubilised envelope fraction; co-purified (Ni-NTA, SEC)
T1 sequence (looked up): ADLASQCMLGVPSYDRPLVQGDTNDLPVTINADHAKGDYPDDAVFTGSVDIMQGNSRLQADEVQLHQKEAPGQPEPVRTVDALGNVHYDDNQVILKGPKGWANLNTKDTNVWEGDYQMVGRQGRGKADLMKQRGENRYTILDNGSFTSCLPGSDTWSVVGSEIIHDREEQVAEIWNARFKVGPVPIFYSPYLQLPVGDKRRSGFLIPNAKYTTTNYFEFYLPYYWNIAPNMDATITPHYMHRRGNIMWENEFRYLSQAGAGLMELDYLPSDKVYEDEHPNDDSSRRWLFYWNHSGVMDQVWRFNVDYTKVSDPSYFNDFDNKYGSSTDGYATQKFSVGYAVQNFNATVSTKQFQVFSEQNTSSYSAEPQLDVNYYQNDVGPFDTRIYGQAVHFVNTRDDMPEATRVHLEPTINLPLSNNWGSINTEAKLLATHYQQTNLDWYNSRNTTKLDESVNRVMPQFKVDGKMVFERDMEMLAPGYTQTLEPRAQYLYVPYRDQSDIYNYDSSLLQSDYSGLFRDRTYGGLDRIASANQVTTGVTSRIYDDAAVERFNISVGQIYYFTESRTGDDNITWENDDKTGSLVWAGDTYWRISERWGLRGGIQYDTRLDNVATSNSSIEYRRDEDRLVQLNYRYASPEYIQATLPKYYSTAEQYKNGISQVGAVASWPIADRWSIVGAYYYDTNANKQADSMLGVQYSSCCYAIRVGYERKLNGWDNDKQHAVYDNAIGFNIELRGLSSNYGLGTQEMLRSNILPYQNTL


Tests used:
[1] = target: T2, LptDEM^His (E. coli, UniProt P31554 25-784; P0ADC1 19-193; P0ADN6 20-67, lipoprotein | lipoprotein); experiment: native MS; purified LptDEM^His and LptDE^His complexes; subpopulation with a mass shift of 14,301 Da; re-analysed and new spectra; details: both partners purified
T2 construct: LptD, E. coli; LptE, E. coli; LptM, E. coli; source: E. coli BW25113 wild type, from pLptDEM^His; purified (Ni-NTA, SEC) in DDM; copies: 1 + 1 + 1

[2] = target: T3, LptDE^His (E. coli, UniProt P31554 25-784; P0ADC1 19-193, lipoprotein); experiment: as above; details: both partners purified
T3 construct: LptD, E. coli; LptE, E. coli; also called core translocon; the translocon; source: E. coli BW25113 (ΔlptM for native MS), from pLptDE^His or derivatives of pLptDME^His; Ni-NTA (and SEC) in DDM; copies: 1 + 1

[3] = target: T1, LptD; experiment: affinity purification with mass spectrometry; nickel-affinity chromatography and gel filtration of LptM^His (wild-type cells) or LptE^His (ΔlptM cells) from DDM-solubilised envelope; SDS-PAGE with Coomassie; ~15 kDa band identified by bottom-up mass spectrometry; details: partners not purified

T2 sequence (P0ADC1 19-193, one chain of several): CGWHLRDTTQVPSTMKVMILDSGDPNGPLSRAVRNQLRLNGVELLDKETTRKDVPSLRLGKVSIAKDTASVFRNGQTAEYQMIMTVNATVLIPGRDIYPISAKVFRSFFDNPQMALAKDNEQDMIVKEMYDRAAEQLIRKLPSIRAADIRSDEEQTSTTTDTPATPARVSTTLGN
T3 sequence (P0ADC1 19-193, one chain of several): as above

stoichiometry N [1] | stoichiometry N [2] | binding result [3] | Binder
1 LptD:LptE:LptM:LptY | 1 LptD:LptE:LptY | – | LptY (natural protein, E. coli, UniProt P31063 16-137, looked up, lipoprotein, LptY (formerly YedD), E. coli OM lipoprotein of ~14 kDa; an AlphaFold2 model was docked; also called YedD; source: endogenous, E. coli BW25113; co-purified with LptDEM^His or LptDE^His (Ni-NTA, SEC)) CAEVENYNNVVKTPAPDWLAGYWQTKGPQRALVSPEAIGSLIVTKEGDTLDCRQWQRVIAVPGKLTLMSDDLTNVTVKRELYEVERDGNTIEYDGMTMERVDRPTAECAAALDKAPLPTPLP
– | – | binds | CGLKGPLYFPPADKNAPPPTKPVETQTQSTVPDKNDRATGDGPSQVNY (natural protein, E. coli, UniProt P0ADN6 20-67, looked up, also: lipoprotein, acyl tails on N-terminal Cys, His-tagged (LptM^His), LptM, E. coli lipoprotein; source: E. coli BW25113, from pLptDEM^His or pLptD^β-barrelEM^His; DDM-solubilised envelope fraction; purified (Ni-NTA, SEC)) [LptM^His]
